Results reported in paper PMC6650407 (Scientific Reports, 2019).

Key:
[1] = target: T1, SyFumC (GST-SyFumC; Synechocystis 6803 fumarase C) (Synechocystis sp. PCC 6803, UniProt Q55674); assay: inhibition, absorbance at […] nm; type: biochemical; settings: read-out: % of control activity at 4 mM
T1 construct: gene fumC
T1 sequence (Q55674 1-466): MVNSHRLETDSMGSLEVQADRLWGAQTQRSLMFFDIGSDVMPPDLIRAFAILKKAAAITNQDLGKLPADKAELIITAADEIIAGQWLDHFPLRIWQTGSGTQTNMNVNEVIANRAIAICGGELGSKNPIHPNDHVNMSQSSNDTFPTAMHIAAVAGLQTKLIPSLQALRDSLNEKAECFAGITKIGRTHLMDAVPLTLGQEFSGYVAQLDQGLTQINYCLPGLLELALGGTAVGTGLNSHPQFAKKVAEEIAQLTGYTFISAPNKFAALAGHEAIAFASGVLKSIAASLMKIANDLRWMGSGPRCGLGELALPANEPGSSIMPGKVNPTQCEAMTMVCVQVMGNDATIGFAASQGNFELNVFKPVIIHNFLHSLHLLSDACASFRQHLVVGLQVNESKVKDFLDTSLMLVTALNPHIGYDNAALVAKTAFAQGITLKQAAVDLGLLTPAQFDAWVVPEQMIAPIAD

[2] = target: T2, SyFumC (GST-SyFumC; Synechocystis 6803 fumarase C) (Synechocystis sp. PCC 6803, UniProt Q55674, A314E); assay: absorbance at […] nm, saturation curve; type: biochemical; settings: 100 mM Tris-HCl pH 7.5, 30 °C, no effector
T2 construct: gene fumC

[3] = target: T1, SyFumC (GST-SyFumC; Synechocystis 6803 fumarase C); assay: absorbance at […] nm, saturation curve; type: biochemical; settings: 100 mM Tris-HCl pH 7.5, 30 °C, no effector
purified protein = substrate: O=C(O)C[C@H](O)C(=O)O; assay: purified protein; settings: 100 mM Tris-HCl pH 7.5, 30 °C, no effector

Row | Molecule | remaining activity at 4000 µM [1] | Km [2] | Km [3] | Km (purified protein) | kcat (purified protein) | kcat/Km (purified protein)
1 | O=C(O)CCC(=O)O [succinate] | 45 to 58% | – | – | – | – | –
2 | O=C(O)/C=C/C(=O)O [fumarate] | – | 179 ± 36 µM | 244 ± 26 µM | – | – | –
3 | SyFumC (GST-SyFumC; Synechocystis 6803 fumarase C) (Synechocystis sp. PCC 6803 substr. Kazusa) (protein) MVNSHRLETDSMGSLEVQADRLWGAQTQRSLMFFDIGSDVMPPDLIRAFAILKKAAAITNQDLGKLPADKAELIITAADEIIAGQWLDHFPLRIWQTGSGTQTNMNVNEVIANRAIAICGGELGSKNPIHPNDHVNMSQSSNDTFPTAMHIAAVAGLQTKLIPSLQALRDSLNEKAECFAGITKIGRTHLMDAVPLTLGQEFSGYVAQLDQGLTQINYCLPGLLELALGGTAVGTGLNSHPQFAKKVAEEIAQLTGYTFISAPNKFAALAGHEAIAFASGVLKSIAASLMKIANDLRWMGSGPRCGLGELALPANEPGSSIMPGKVNPTQCEAMTMVCVQVMGNDATIGFAASQGNFELNVFKPVIIHNFLHSLHLLSDACASFRQHLVVGLQVNESKVKDFLDTSLMLVTALNPHIGYDNAALVAKTAFAQGITLKQAAVDLGLLTPAQFDAWVVPEQMIAPIAD | – | – | – | 478 ± 112 µM | 42.3 s⁻¹ | 90300 M⁻¹ s⁻¹
4 | SyFumC (GST-SyFumC; Synechocystis 6803 fumarase C) (Synechocystis sp. PCC 6803 substr. Kazusa; A314E) (protein) MVNSHRLETDSMGSLEVQADRLWGAQTQRSLMFFDIGSDVMPPDLIRAFAILKKAAAITNQDLGKLPADKAELIITAADEIIAGQWLDHFPLRIWQTGSGTQTNMNVNEVIANRAIAICGGELGSKNPIHPNDHVNMSQSSNDTFPTAMHIAAVAGLQTKLIPSLQALRDSLNEKAECFAGITKIGRTHLMDAVPLTLGQEFSGYVAQLDQGLTQINYCLPGLLELALGGTAVGTGLNSHPQFAKKVAEEIAQLTGYTFISAPNKFAALAGHEAIAFASGVLKSIAASLMKIANDLRWMGSGPRCGLGELALPENEPGSSIMPGKVNPTQCEAMTMVCVQVMGNDATIGFAASQGNFELNVFKPVIIHNFLHSLHLLSDACASFRQHLVVGLQVNESKVKDFLDTSLMLVTALNPHIGYDNAALVAKTAFAQGITLKQAAVDLGLLTPAQFDAWVVPEQMIAPIAD | – | – | – | 442 ± 20 µM | 21.6 s⁻¹ | 49000 M⁻¹ s⁻¹
